The text below walks through data of patent US20140295512A1, “Ketol-Acid Reductoisomerases With Improved Performance Properties” (CALIFORNIA INSTITUTE OF TECHNOLOGY, priority 2011, published 2014).

Holding throughout (type): biochemical
Data set [1] is described as follows: KARI enzyme assay on cell lysates with NADH and NADPH as cofactors. How it is done:
In this example, different KARI enzymes (Table 7) were screened for their activity with NADH and NADPH as cofactor. The enzymes were expressed in an S. cerevisiae strain by means of 2 micron plasmids carrying the KARI genes under the control of the S. cerevisiae TDH3 promoter. The transformants were cultivated in shake flask fermentations as described below and samples were taken after 44 h, centrifuged at 4000×g for 10 mins at 4° C. and the cell pellets were stored at −80° C. until analysis. The pellets were lysed by bead beating and the lysates were analyzed by KARI activity assay as described below using NADH and NADPH as cofactors.
Patched cells (or single colonies) grown on YPD+G418 plates at 30° C. were mixed into 3 mL YP+12% dextrose+200 mM MES, pH 6.5+G418, in 14 mL culture tubes and incubated at 250 RPM, 30° C. for ˜24 hours. The cells from the cultures were used to inoculate YP+12% dextrose+200 mM MES, pH 6.5+G418, in non-baffled flasks with a vented grey screw-caps at OD600 0.01. The cultures were incubated at 250 RPM, 30° C. for 24 hours, diluted 1:3 and incubated for another 20 h at 250 RPM, 30° C. Samples for enzyme assay pellets and protein quantification pellets were taken from each shake flask, and cell-free supernatant was used to measure glucose levels in shake flasks.
The assay and no substrate control reactions were performed in triplicate for each sample. The following stock solutions were prepared: 1 M potassium phosphate, pH 7, 0.1 M MgCl2, 100 mM DTT, 25 mM NADH or NADPH, 200 mM 2-acetolactate. The 2-acetolactate was made fresh each time by mixing 50 μL Ethyl-2-acetoxy-2-methylacetoacetate (EAMAA) with 990 μL water. Gradually 260 μL of 2 N NaOH was added in 10 μL increments to the EAMAA water mixture. After each addition the sample was vortexed for 15 seconds, and the procedure repeated until the entire 260 μL of 2 N NaOH was added. Afterwards the solution was mixed on an orbital shaker for 20 min (Krampitz, 1957). KARI reaction buffer (100 μL per reaction) was prepared to the following concentrations: 250 mM potassium phosphate, pH 7, 10 mM MgCl2, 1 mM DTT, 0.2 mM NADH or NADPH, 10 mM 2-acetolactate. For the no substrate controls, the 2-acetolactate was substituted with water. 10 μL of each lysate were transferred into a 96 well half area assay plate. The reaction was started with 90 μL of reaction buffer to each well using a multichannel pipette. The samples were mixed immediately. The samples were read at 340 nm every 10 s for 5 min.

The nature of data set [2]: KARI assay of purified S. exigua KARI and variants with NADH (Examples 6-9). The following applies: for U/mg NADH (specific activity): cofactor NADH; for Ratio NADH/NADPH (U/mg): specific activity ratio; for Km: read-out: Km for cofactor NADH. On the procedure: (§1) S. exigua KARI activity or activities of its variants were assayed kinetically by monitoring the decrease in NADPH or NADH concentration by measuring the change in absorbance at 340 nm. An assay buffer was prepared containing 100 mM potassium phosphate pH 7.0, 1 mM DTT, 2.5 mM (S)-2-acetolactate, and 10 mM MgCl2 (final concentrations in the 1-mL assay, accounting for dilution with enzyme and cofactor). Fifty μL purified enzyme and 930 μL of the assay buffer were placed into a 1-mL cuvette. The reaction was initiated by addition of 20 μL NADPH or NADH (200 μM final concentration) for a general activity assay. Michaelis-Menten constants of the cofactors were determined with varying concentrations of NADPH (200-12 μM final) or NADH (200-6 μM final).

The nature of data set [3]: KARI assay of purified S. exigua KARI and variants with NADPH (Examples 6-9). The following applies: for U/mg NADPH (specific activity): cofactor NADPH; for Km: read-out: Km for cofactor NADPH. How it is done: as §1

Where only a bound is given, the exact number is not on record here.

B1: Zm: Zymomonas mobilis KARI homolog (protein, UniProt Q9X5F8 1-339, looked up)
Ketol-acid reductoisomerase …: MKVYYDSDADLGLIKSKKIAILGYGSQGHAHAQNLRDSGVAEVAIALRPDSASVKKAQDAGFKVLTNAEAAKWADILMILAPDEHQAAIYAEDLKDNLRPGSAIAFAHGLNIHFGLIEPRKDIDVFMIAPKGPGHTVRSEYVRGGGVPCLVAVDQDASGNAHDIALAYASGIGGGRSGVIETTFREEVETDLFGEQAVLCGGLTALITAGFETLTEAGYAPEMAFFECMHEMKLIVDLIYEAGIANMRYSISNTAEYGDIVSGPRVINEESKKAMKAILDDIQSGRFVSKFVLDNRAGQPELKAARKRMAAHPIEQVGARLRKMMPWIASNKLVDKARN
On to B1, for which, in data set [1], the “Specific Activity with NADH/Specific Activity with NADPH” value worked out at 0.074. Moreover, in data set [1] (empty vector control subtracted), the “NADH-Dependent Specific Activity” value is given as 0.002 U/mg lysate.

B2: Se1_KARI^1A8: S. exigua KARI variant G60V, I95V, V99L (protein, UniProt D0WGK0 1-342, looked up, variant G60V I95V V99L)
Ketol-acid reductoisomerase …: MSVKTKEKEMAVTILYEQDVDPKVIQGLKVGIIGYGSQGHAHALNLMDSGVDVRVGLREVSSSWKTAEEAGLKVTDMDTAAEEADVIMVLVPDEVQPKLYQEHIAAHLKAGNTLAFAHGFNIHYGYIVPPEDVNVIMCAPKGPGHIVRRQFTEGSGVPDLACVQQDATGNAWDIVLSYCWGVGGARSGIIKATFAEETEEDLFGEQAVLCGGLVELVKAGFETLTEAGYPPELAYFECYHEMKMIVDLMYESGIHFMNYSISNTAEYGEYYAGPKVINEQSREAMKEILKRIQDGSFAQEFVDDCNNGHKRLLEQREAINTHPIETTGAQIRSMFSWIKKED
As for B2, in data set [2], the “kcat NADH” value stood at 0.65 s⁻¹, the “U/mg NADH (specific activity)” value came out at 0.26 U/mg and the “Ratio NADH/NADPH (U/mg)” value is recorded as 0.8. In data set [3], the “kcat NADPH” value came to 0.79 s⁻¹ and the “U/mg NADPH (specific activity)” value was 0.32 U/mg.

B3: Se1_KARI^13G6: S. exigua KARI variant G60V, I95A (protein, UniProt D0WGK0 1-342, looked up, variant G60V I95A)
Ketol-acid reductoisomerase …: MSVKTKEKEMAVTILYEQDVDPKVIQGLKVGIIGYGSQGHAHALNLMDSGVDVRVGLREVSSSWKTAEEAGLKVTDMDTAAEEADVIMVLVPDEAQPKVYQEHIAAHLKAGNTLAFAHGFNIHYGYIVPPEDVNVIMCAPKGPGHIVRRQFTEGSGVPDLACVQQDATGNAWDIVLSYCWGVGGARSGIIKATFAEETEEDLFGEQAVLCGGLVELVKAGFETLTEAGYPPELAYFECYHEMKMIVDLMYESGIHFMNYSISNTAEYGEYYAGPKVINEQSREAMKEILKRIQDGSFAQEFVDDCNNGHKRLLEQREAINTHPIETTGAQIRSMFSWIKKED
For orientation: Km means the substrate concentration at which the rate is half of its maximum. With B3, in data set [2], the “kcat NADH” value is 0.74 s⁻¹, the “kcat/Km ratio NADH/NADPH (cofactor specificity)” value (shortened to “kcat/Km ratio NADH/NADPH”) is 0.03, the “U/mg NADH (specific activity)” value came to 0.30 U/mg and the Km worked out at 34 µM. The “Ratio NADH/NADPH (U/mg)” value in data set [2] was 0.8. Moreover, in data set [3], the “kcat NADPH” value amounted to 0.90 s⁻¹, the “U/mg NADPH (specific activity)” value stood at 0.37 U/mg and the Km was less than 1 µM.

B4: Se1_KARI^AC1: S. exigua KARI variant S63D, I95A (protein, UniProt D0WGK0 1-342, looked up, variant S63D I95A)
Ketol-acid reductoisomerase …: MSVKTKEKEMAVTILYEQDVDPKVIQGLKVGIIGYGSQGHAHALNLMDSGVDVRVGLREGSSDWKTAEEAGLKVTDMDTAAEEADVIMVLVPDEAQPKVYQEHIAAHLKAGNTLAFAHGFNIHYGYIVPPEDVNVIMCAPKGPGHIVRRQFTEGSGVPDLACVQQDATGNAWDIVLSYCWGVGGARSGIIKATFAEETEEDLFGEQAVLCGGLVELVKAGFETLTEAGYPPELAYFECYHEMKMIVDLMYESGIHFMNYSISNTAEYGEYYAGPKVINEQSREAMKEILKRIQDGSFAQEFVDDCNNGHKRLLEQREAINTHPIETTGAQIRSMFSWIKKED
As to B4, in data set [2], the “kcat NADH” value came out at 0.5 s⁻¹, the “kcat/Km ratio NADH/NADPH” value came out at 0.3, the “U/mg NADH (specific activity)” value turned out to be 0.2 U/mg and the Km came to 68 µM. Besides, in data set [2], the “Ratio NADH/NADPH (U/mg)” value amounted to 0.5. Besides, in data set [3], the “kcat NADPH” value amounted to 1 s⁻¹, the “U/mg NADPH (specific activity)” value is on record as 0.4 U/mg and the Km came to 45 µM.

B5: Se1_NKR^Gen6-his6: S. exigua KARI variant S61D, S63D, I95V (protein, UniProt D0WGK0 1-342, looked up, variant S61D S63D I95V)
Ketol-acid reductoisomerase …: MSVKTKEKEMAVTILYEQDVDPKVIQGLKVGIIGYGSQGHAHALNLMDSGVDVRVGLREGDSDWKTAEEAGLKVTDMDTAAEEADVIMVLVPDEVQPKVYQEHIAAHLKAGNTLAFAHGFNIHYGYIVPPEDVNVIMCAPKGPGHIVRRQFTEGSGVPDLACVQQDATGNAWDIVLSYCWGVGGARSGIIKATFAEETEEDLFGEQAVLCGGLVELVKAGFETLTEAGYPPELAYFECYHEMKMIVDLMYESGIHFMNYSISNTAEYGEYYAGPKVINEQSREAMKEILKRIQDGSFAQEFVDDCNNGHKRLLEQREAINTHPIETTGAQIRSMFSWIKKED
modifications: His6 tag
notes: S. exigua KARI variant S61D, S63D, I95V
Consider B5, for which, in data set [2], the “kcat NADH” value was found to be 1 ± 0.01 s⁻¹, the “kcat/Km ratio NADH/NADPH” value worked out at 87, the “U/mg NADH (specific activity)” value was 0.4 ± 0.01 U/mg and the Michaelis constant (Km) worked out at 47 ± 15 µM. Besides, the “Ratio NADH/NADPH (U/mg)” value in data set [2] is on record as 5.7. Also, in data set [3], the “kcat NADPH” value came to 0.18 ± 0.00 s⁻¹, the “U/mg NADPH (specific activity)” value amounted to 0.07 ± 0.0 U/mg and the Km was greater than 1000 µM.

B6: Se1_KARI^2C6: S. exigua KARI variant L57V, R58P (protein, UniProt D0WGK0 1-342, looked up, variant L57V R58P)
Ketol-acid reductoisomerase …: MSVKTKEKEMAVTILYEQDVDPKVIQGLKVGIIGYGSQGHAHALNLMDSGVDVRVGVPEGSSSWKTAEEAGLKVTDMDTAAEEADVIMVLVPDEIQPKVYQEHIAAHLKAGNTLAFAHGFNIHYGYIVPPEDVNVIMCAPKGPGHIVRRQFTEGSGVPDLACVQQDATGNAWDIVLSYCWGVGGARSGIIKATFAEETEEDLFGEQAVLCGGLVELVKAGFETLTEAGYPPELAYFECYHEMKMIVDLMYESGIHFMNYSISNTAEYGEYYAGPKVINEQSREAMKEILKRIQDGSFAQEFVDDCNNGHKRLLEQREAINTHPIETTGAQIRSMFSWIKKED
In the case of B6, in data set [2], the “kcat NADH” value turned out to be 0.55 s⁻¹, the “U/mg NADH (specific activity)” value worked out at 0.22 U/mg and the “Ratio NADH/NADPH (U/mg)” value was determined as 0.7. Moreover, in data set [3], the “kcat NADPH” value came out at 0.80 s⁻¹ and the “U/mg NADPH (specific activity)” value is 0.33 U/mg.

B7: Se1_KARI^1H1: S. exigua KARI variant R58P, S61C (protein, UniProt D0WGK0 1-342, looked up, variant R58P S61C)
Ketol-acid reductoisomerase …: MSVKTKEKEMAVTILYEQDVDPKVIQGLKVGIIGYGSQGHAHALNLMDSGVDVRVGLPEGCSSWKTAEEAGLKVTDMDTAAEEADVIMVLVPDEIQPKVYQEHIAAHLKAGNTLAFAHGFNIHYGYIVPPEDVNVIMCAPKGPGHIVRRQFTEGSGVPDLACVQQDATGNAWDIVLSYCWGVGGARSGIIKATFAEETEEDLFGEQAVLCGGLVELVKAGFETLTEAGYPPELAYFECYHEMKMIVDLMYESGIHFMNYSISNTAEYGEYYAGPKVINEQSREAMKEILKRIQDGSFAQEFVDDCNNGHKRLLEQREAINTHPIETTGAQIRSMFSWIKKED
As for B7, in data set [2], the “kcat NADH” value worked out at 0.50 s⁻¹, the “U/mg NADH (specific activity)” value is on record as 0.20 U/mg and the “Ratio NADH/NADPH (U/mg)” value amounted to 0.8. In data set [3], the “kcat NADPH” value was determined as 0.65 s⁻¹ and the “U/mg NADPH (specific activity)” value is 0.26 U/mg.

B8: Se1_KARI^14B7: S. exigua KARI variant Y35H, S63D, I95V (protein, UniProt D0WGK0 1-342, looked up, variant Y35H S63D I95V)
Ketol-acid reductoisomerase …: MSVKTKEKEMAVTILYEQDVDPKVIQGLKVGIIGHGSQGHAHALNLMDSGVDVRVGLREGSSDWKTAEEAGLKVTDMDTAAEEADVIMVLVPDEVQPKVYQEHIAAHLKAGNTLAFAHGFNIHYGYIVPPEDVNVIMCAPKGPGHIVRRQFTEGSGVPDLACVQQDATGNAWDIVLSYCWGVGGARSGIIKATFAEETEEDLFGEQAVLCGGLVELVKAGFETLTEAGYPPELAYFECYHEMKMIVDLMYESGIHFMNYSISNTAEYGEYYAGPKVINEQSREAMKEILKRIQDGSFAQEFVDDCNNGHKRLLEQREAINTHPIETTGAQIRSMFSWIKKED
As to B8, in data set [2], the “kcat NADH” value came to 0.45 s⁻¹, the “U/mg NADH (specific activity)” value came out at 0.18 U/mg and the “Ratio NADH/NADPH (U/mg)” value is given as 0.32. Moreover, in data set [3], the “kcat NADPH” value amounted to 1.4 s⁻¹ and the “U/mg NADPH (specific activity)” value was 0.56 U/mg.
